Measurements published in patent publication US20250144186A1, “NOVEL THERAPEUTIC USES OF GARDNERELLA ENDOLYSINS” (priority 2022, published 2025).
“And” between values parts separate entries of the source, which are not always exact repeats. Identical values can stand only once.

Key:
[1] = test system: passaged G. piotii biofilm; experiment: MBEC on biofilms of passaged strains; type: cell-based, Gardnerella piotii; conditions: G. piotii (UGent 18.01T) passaged with MDZ-OH
Description: (§1) Gardnerella spp. (see figures for strain specification) was resuspended in brain heart infusion broth supplemented with 2% (w/v) gelatin, 0.5% yeast extract (w/v), 0.1% starch (w/v) and 0.25% glucose (w/v) (sBHIG). Passaged strains were resuspended in unbuffered NYCB supplemented with 1% glucose (w/v) (sNYCB). The OD600 was set to 0.1 (approx. 10^7-10^8 CFU/mL) and the cell suspension was diluted 1:10 in growth medium as input for biofilm formation. A total of 200 μL of the respective bacterial suspensions was added to 96-well flat bottom plates (tissue-culture treated, Sigma-Aldrich). The biofilms were grown under anaerobic conditions at 37° C. for 40 to 72 hours, depending on the isolate. Subsequently, the supernatant was removed, and the biofilm was treated with antimicrobials dissolved in sBHIG (at pH 5 for treatment with PM-477 (H2B10), and unbuffered for treatment with antibiotics) in 100 μL and incubated anaerobically at 37° C. for another 24 hours. After the treatment, the biofilms were washed twice with 200 μL 1x PBS and dissolved by vigorous pipetting (40x up and down). Serial dilutions of the dissolved cells were spotted on chocolate agar plates. The plates were incubated anaerobically for two to three days and the minimum biofilm eradication concentration (MBEC) of the endolysin or the antibiotics in use were calculated.
(§2) All MICs determined after 48 h of incubation.

[2] = test system: MDZ or MDZ-OH passaged Gardnerella strains grown as biofilm; experiment: MBEC on biofilms of the six passaged strains, summary; type: cell-based, Gardnerella spp.
Description: as §1

Gardnerella piotii = experiment: MIC / MBC99.5 assessment in suspension; type: cell-based
Description: (§3) The minimum inhibitory concentration (MIC), which is a standard measure of the activity of antimicrobials, was determined according to the Clinical and Laboratory Standards Institute protocol (2018) Methods for Antimicrobial Susceptibility Testing of Anaerobic Bacteria (Carpenter et al., 2018). […] Controls for growth in the absence of antimicrobials were also included. OD600 was recorded by a microplate reader (Tecan, Grodig, Austria) after incubation at 37° C. for 48 h or, for some fast-growing strains, after incubation for 24 h. Absence of growth was defined as OD600≤0.14. […] MIC readout and MBC99.5 spotting were performed after 72 h incubation for H2B10B11.
(§4) However, topical intravaginal antibiotic administration is recommended for BV therapy, which allows to reach concentrations of active ingredients in the mg/mL range. […] Abbreviations: n.d., not determined; SJHB, St. Jan Hospital Bruges.
(§5) MIC90 is defined as the MIC value for 90% of the tested strains. For PM-477 (H2B10), the resistance breakpoint is not defined, therefore a “% resistant” is not defined (n.d.).

Gardnerella leopoldii = experiment: MIC / MBC99.5 assessment in suspension; type: cell-based
Description: as §3, §4, §5

passaged G. vaginalis = experiment: MIC on strains passaged with MDZ or MDZ-OH; type: cell-based, Gardnerella vaginalis; conditions: 48 h incubation
Description: as §3, with “H2B10B11. MBC99.5 is the minimum concentration of an antibacterial agent that results in bacterial death of all cells in suspension up to a defined limit of detection, resulting in killing of at least 99.5% of bacteria.” for “H2B10B11.”
The final volume of the reaction was 100 µL and the reactions were performed in triplicate in 384-well plates. The OD600 was measured using a microplate reader (Tecan, Grodig, Austria) to generate timepoint 0 h baseline values. The reactions were incubated anaerobically for 24 h, then the OD600 was measured again, and the MIC was measured as the lowest concentration with OD600<0.14. […] This process was repeated for a maximum of 25 rounds. In each round, the input CFU/mL was determined by quantitative plating.
The susceptibility of Gardnerella strains before and after 8 to 9-times passaging with sub-MIC concentrations of MZD or MDZ-OH is shown in Table 4 below. All MICs determined after 48 h of incubation.

[3] = test system: passaged G. vaginalis biofilm; experiment: MBEC on biofilms of passaged strains; type: cell-based, Gardnerella vaginalis
Description: as §1, §2

Gardnerella vaginalis = experiment: microbe, parasite or virus in culture; type: cell-based; conditions: for MIC before passaging: 48 h incubation
[4] = Gardnerella piotii, N=7 strains
[5] = Gardnerella leopoldii, N=3 strains
[6] = G. vaginalis (UGent 09.07) passaged 8 times with MDZ-OH
[7] = G. vaginalis (UGent BV50) passaged with MDZ-OH

B1: PM-477: genetically engineered recombinant Gardnerella-specific endolysin, amino acid sequence SEQ ID NO: 1, His-tag cleaved off (protein)
chain: SKRGIDVSEWQGDIDFNAVKASGVEFVIIRAGYGIGCKDKWFEQNYRKAKTCGLDVGAYWYSYANSGFEAAEEAQSCVNMLSGKSFEYPVYFDLEEKSQLNRGRAFCDSLITGFCNKLESCGYYAGFYTSLSTANNLVSAHVRNRYALWIAQWNTHCSYQGSYGLWQYSSSGSVPGVAGRVDMDYAYVDYPSIIKNVGLNGYKNGGSYTAPQISSIDEVAREVINGDWGNGNERKQRLTSAGYDYASVQNKVNELLGVKAYRKSVDELAREVIRGTWGNGSTRKQRLTQAGYDYNAVQKRVNELL
modifications: His-tag cleaved off; H2B10
[1]
  MBEC passaged: <1 µg/mL
[2]; 72 h pre-formed biofilms treated for 24 h
  Susceptibility of MDZ-passaged strains grown as biofilm (FIG. 4): susceptible
[2]; six strains passaged on MDZ or MDZ-OH, pre-formed biofilms, 24 h treatment, listed as PM-477 (H2B10)
  MBEC, range over passaged strains: 1 to 8 µg/mL and 1 to 4 µg/mL
Gardnerella piotii; G. piotii (BV049) UGent BV049.1
  MBC99.5: 1 µg/mL
Gardnerella piotii; G. piotii (BV049) UGent BV049.1, suspension
  MIC: 1 µg/mL
Gardnerella piotii; G. piotii (BV140) UGent BV140.2
  MBC99.5: 2 µg/mL
Gardnerella piotii; G. piotii (BV140) UGent BV140.2, suspension
  MIC: 1 µg/mL
Gardnerella piotii; G. piotii (BV154) UGent BV154.1
  MBC99.5: 1 µg/mL
Gardnerella piotii; G. piotii (BV154) UGent BV154.1, suspension
  MIC: 0.5 µg/mL
Gardnerella piotii; G. piotii (FB041) UGent FB041
  MBC99.5: 1 µg/mL
Gardnerella piotii; G. piotii (FB041) UGent FB041, suspension
  MIC: 0.5 µg/mL
Gardnerella piotii; G. piotii (Gp17) UGent 18.01(T)
  MBC99.5: 4 µg/mL
Gardnerella piotii; G. piotii (Gp17) UGent 18.01(T), suspension
  MIC: 1 µg/mL
Gardnerella piotii; G. piotii (Gp22) UGent 21.28
  MBC99.5: 2 µg/mL
Gardnerella piotii; G. piotii (Gp22) UGent 21.28, suspension
  MIC: 1 µg/mL
Gardnerella piotii; G. piotii (P80275) UGent P80275
  MBC99.5: 1 µg/mL
Gardnerella piotii; G. piotii (P80275) UGent P80275, suspension
  MIC: 0.5 µg/mL
Gardnerella piotii; G. piotii (UGent 18.01T), 48 h incubation
  MIC before passaging: 1 µg/mL
Gardnerella piotii; [4]
  MIC90: 1 µg/mL
  MIC Range: 0.5 to 1 µg/mL
Gardnerella leopoldii; G. leopoldii (BV13) UGent BV13.2
  MBC99.5: 2 µg/mL
Gardnerella leopoldii; G. leopoldii (BV13) UGent BV13.2, suspension
  MIC: 0.5 µg/mL
Gardnerella leopoldii; G. leopoldii (BV217) UGent BV217.1
  MBC99.5: 1 µg/mL
Gardnerella leopoldii; G. leopoldii (BV217) UGent BV217.1, suspension
  MIC: 0.25 µg/mL
Gardnerella leopoldii; G. leopoldii (Gl11) UGent 09.48
  MBC99.5: 0.5 µg/mL
Gardnerella leopoldii; G. leopoldii (Gl11) UGent 09.48, suspension
  MIC: 0.125 µg/mL
Gardnerella leopoldii; [5]
  MIC90: 0.5 µg/mL
  MIC Range: 0.125 to 0.5 µg/mL
Passaged G. vaginalis; G. vaginalis (ATCC 14018T) passaged with sub-MIC MDZ
  MIC passaged: 0.13 µg/mL
Passaged G. vaginalis; [6]
  MIC passaged: 0.25 µg/mL
Passaged G. vaginalis; [7]
  MIC passaged: 0.25 µg/mL
[3]; G. vaginalis (ATCC 14018T) passaged with MDZ
  MBEC passaged: 2 to 8 µg/mL
[3]; [6]
  MBEC passaged: 2 to 4 µg/mL
[3]; [7]
  MBEC passaged: 1 to 8 µg/mL
Gardnerella vaginalis; G. vaginalis (ATCC 14018T)
  MIC before passaging: 0.06 µg/mL
Gardnerella vaginalis; G. vaginalis (BV50) UGent BV50.1
  MBC99.5: 1 µg/mL
Gardnerella vaginalis; G. vaginalis (BV50) UGent BV50.1, suspension
  MIC: 0.5 µg/mL
Gardnerella vaginalis; G. vaginalis (BV111) UGent BV111.5
  MBC99.5: 0.5 µg/mL
Gardnerella vaginalis; G. vaginalis (BV111) UGent BV111.5, suspension
  MIC: 0.25 µg/mL
Gardnerella vaginalis; G. vaginalis (FB049) UGent FB049-01
  MBC99.5: 0.25 µg/mL
Gardnerella vaginalis; G. vaginalis (FB049) UGent FB049-01, suspension
  MIC: 0.25 µg/mL
Gardnerella vaginalis; G. vaginalis (FB061) UGent FB061-03
  MBC99.5: 2 µg/mL
Gardnerella vaginalis; G. vaginalis (FB061) UGent FB061-03, suspension
  MIC: 0.5 µg/mL
Gardnerella vaginalis; G. vaginalis (Gv1) UGent 09.07
  MBC99.5: 1 µg/mL
Gardnerella vaginalis; G. vaginalis (Gv1) UGent 09.07, suspension
  MIC: 0.25 µg/mL
Gardnerella vaginalis; G. vaginalis (Gv5) UGent 09.01
  MBC99.5: 0.125 µg/mL
Gardnerella vaginalis; G. vaginalis (Gv5) UGent 09.01, suspension
  MIC: <0.03 µg/mL
Gardnerella vaginalis; G. vaginalis (Gv8) UGent 25.49
  MBC99.5: 0.125 µg/mL
Gardnerella vaginalis; G. vaginalis (Gv8) UGent 25.49, suspension
  MIC: 0.03 µg/mL
Gardnerella vaginalis; G. vaginalis (Gv9) ATCC 14018(T), suspension
  MIC: 0.06 µg/mL
Gardnerella vaginalis; G. vaginalis (Gv9) ATCC 14018(T), reduces CFU by 99.5% within 24 h
  MBC99.5: 0.25 µg/mL
Gardnerella vaginalis; G. vaginalis (UGent 09.07)
  MIC before passaging: 0.25 µg/mL
Gardnerella vaginalis; G. vaginalis (UGent BV50)
  MIC before passaging: 0.5 µg/mL
Gardnerella vaginalis; Gardnerella vaginalis, N=8 strains
  MIC Range: <0.03 to 0.5 µg/mL
Gardnerella vaginalis; Gardnerella vaginalis, N=8 strains, MIC value for 90% of the tested strains
  MIC90: 0.5 µg/mL
